Drawing on article PMC3951589, this text covers stoichiometry N for one substance.

In the assay the target is pIICASV-GP2(267–351) (not stated | CAS virus (CASV)). The assay is described as follows: SEC.

For the substance “pIICASV-GP2(267–351) (domain or fragment)”, the stoichiometry N is 3.
